# B1: MKL_S: novel short isoform of human MKL1 (SEQ ID NO:1), stably overexpressed in EcR-293 cells from construct 5′UTR-MKL_S (protein, listed as Homo sapiens)
# chain: MTLLEPEMLMMAVQSVLQLKLQQRRTREELVSQGIMPPLKSPAAFHEQRRSLERARTEDYLKRKIRSRPERSELVRMHILEETSAEPSLQAKQLKLKRARLADDLNEKIAQRPGPMELVEKNILPVESSLKEAIIVGQVNYPKVADSSSFDEDSSDALSPEQPASHESQGSVPSPLEARVSEPLLSATSASPTQVVSQLPMGRDSREMLFLAEQPPLPPPPLLPPSLTNGTTIPTAKSTPTLIKQSQPKSASEKSQRSKKAKELKPKVKKLKYHQYIPPDQKQDRGAPPMDSSYAKILQQQQLFLQLQILNQQQQQHHNYQAILPAPPKSAGEALGSSGTPPVRSLSTTNSSSSSGAPGPCGLARQNSTSLTGKPGALPANLDDMKVAELKQELKLRSLPVSGTKTELIERLRAYQDQISPVPGAPKAPAATSILHKAGEVVVAFPAARLSTGPALVAAGLAPAEVVVATVASSGVVKFGSTGSTPPVSPTPSERSLLSTGDENSTPGDTFGEMVTSPLTQLTLQASPLQILVKEEGPRAGSCCLSPGGRAELEGRDKDQMLQEKDKQIEALTRMLRQKQQLVERLKLQLEQEKRAQQPAPAPAPLGTPVKQENSFSSCQLSQQPLGPAHPFNPSLAAPATNHIDPCAVAPGPPSVVVKQEALQPEPEPVPAPQLLLGPQGPSLIKGVAPPTLITDSTGTHLVLTVTNKNADSPGLSSGSPQQPSSQPGSPAPAPSAQMDLEHPLQPLFGTPTSLLKKEPPGYEEAMSQQPKQQENGSSSQQMDDLFDILIQSGEISADFKEPPSLPGKEKPSPKTVCGSPLAAQPSPSAELPQAAPPPPGSPSLPGRLEDFLESSTGLPLLTSGHDGPEPLSLIDDLHSQMLSSTAILDHPPSPMDTSELHFVPEPSSTMGLDLADGHLDSMDWLELSSGGPVLSLAPLSTTAPSLFSTDFLDGHDLQLHWDSCL
# Test system: EcR-293 cells
# Experiment: DNA microarray on EcR-293 cells overexpressing MKL1 isoforms
# Format: cell-based, human
# Details: for ACTA2 fold change vs. control / ADAM21 fold change vs. control / AMBN fold change vs. control / CNN2 fold change vs. control / DSEL fold change vs. control / ESRRG fold change vs. control / MKL1 (total) fold change vs. control / MMP16 fold change vs. control / NAP1L3 fold change vs. control / OSTN fold change vs. control / PDGFD fold change vs. control / ROCK1P1 fold change vs. control / RORB fold change vs. control / SLC8A1 fold change vs. control / SPOCK3 fold change vs. control: vs empty pcDNA3 vector
# Procedure: DNA microarray EcR-293 cells stably transfected with 1) the empty pcDNA3 vector, 2) 5′UTR-MKL_L, 3) 5′UTR-MKL_S were grown in triplicates. For “untreated” samples, total RNA was extracted from cells in D-MEM/10% FBS. “LPA treated” cells were starved for 16 h in D-MEM/0.3% FBS and subsequently treated with 50 μm LPA for 20 min. RNA was extracted 4 h after treatment. RNA was converted into labeled cRNA and hybridized to Affymetrix Human Gene 1.0 arrays (Affymetrix, Santa Clara, Calif., USA). The procedure for the microarray analysis was as previously described (4). Differences in gene expression were calculated for 2) vs. 1), 3) vs. 1), and 3) vs. 2). • (1) Miralles F et al., Cell, Volume 113, Issue 3, May 2003, 329-342 • (2) Maier S et al., Biochimica et Biophysica Acta (BBA)—Molecular Cell Research, Volume 1783, Issue 6, June 2008, 1150-1162 • (3) Martina et al., The FASEB Journal, Volume 24, Issue 3, March 2010, 778-787 • (4) Asparuhova et al., The FASEB Journal, Volume 25, Issue 10, October 2011, 3477-3488
molecule,measurement,setting,value
B1,ACTA2 fold change MKL_S vs. MKL_L,4 h after LPA treatment,<1.20 fold
same,ADAM21 fold change MKL_S vs. MKL_L,4 h after LPA treatment,+1.65 (2.95E−05) fold
same,AMBN fold change MKL_S vs. MKL_L,4 h after LPA treatment,+1.67 (1.04E−03) fold
same,CNN2 fold change MKL_S vs. MKL_L,4 h after LPA treatment,+1.44 (1.06E−06) fold
same,DSEL fold change MKL_S vs. MKL_L,4 h after LPA treatment,+1.50 (2.87E−04) fold
same,ESRRG fold change MKL_S vs. MKL_L,4 h after LPA treatment,<1.20 fold
same,MKL1 (total) fold change MKL_S vs. MKL_L,4 h after LPA treatment,−1.91 (3.79E−06) fold
same,MMP16 fold change MKL_S vs. MKL_L,4 h after LPA treatment,+2.54 (1.95E−05) fold
same,NAP1L3 fold change MKL_S vs. MKL_L,4 h after LPA treatment,+1.49 (1.82E−03) fold
same,OSTN fold change MKL_S vs. MKL_L,4 h after LPA treatment,+1.92 (1.57E−04) fold
same,PDGFD fold change MKL_S vs. MKL_L,4 h after LPA treatment,<1.20 fold
same,ROCK1P1 fold change MKL_S vs. MKL_L,4 h after LPA treatment,+1.60 (1.99E−03) fold
same,RORB fold change MKL_S vs. MKL_L,4 h after LPA treatment,<1.20 fold
same,SLC8A1 fold change MKL_S vs. MKL_L,4 h after LPA treatment,−1.31 (1.42E−03) fold
same,SPOCK3 fold change MKL_S vs. MKL_L,4 h after LPA treatment,2.18 (2.70E−06) fold
same,ACTA2 fold change MKL_S vs. MKL_L,untreated cells,<1.20 fold
same,ADAM21 fold change MKL_S vs. MKL_L,untreated cells,<1.20 fold
same,AMBN fold change MKL_S vs. MKL_L,untreated cells,+1.73 (5.61E−04) fold
same,CNN2 fold change MKL_S vs. MKL_L,untreated cells,+1.53 (7.48E−06) fold
same,DSEL fold change MKL_S vs. MKL_L,untreated cells,+1.51 (1.13E−03) fold
same,ESRRG fold change MKL_S vs. MKL_L,untreated cells,<1.20 fold
same,MKL1 (total) fold change MKL_S vs. MKL_L,untreated cells,−1.54 (8.11E−08) fold
same,MMP16 fold change MKL_S vs. MKL_L,untreated cells,+2.03 (9.27E−06) fold
same,NAP1L3 fold change MKL_S vs. MKL_L,untreated cells,+1.75 (1.30E−04) fold
same,OSTN fold change MKL_S vs. MKL_L,untreated cells,+1.90 (2.17E−04) fold
same,PDGFD fold change MKL_S vs. MKL_L,untreated cells,<1.20 fold
same,ROCK1P1 fold change MKL_S vs. MKL_L,untreated cells,<1.20 fold
same,RORB fold change MKL_S vs. MKL_L,untreated cells,<1.20 fold
same,SLC8A1 fold change MKL_S vs. MKL_L,untreated cells,<1.20 fold
same,SPOCK3 fold change MKL_S vs. MKL_L,untreated cells,+1.97 (6.82E−06) fold
same,ACTA2 fold change vs. control,4 h after LPA treatment,+2.02 (2.99E−05) fold
same,ADAM21 fold change vs. control,4 h after LPA treatment,+1.38 (3.69E−06) fold
same,AMBN fold change vs. control,4 h after LPA treatment,+5.14 (1.97E−07) fold
same,CNN2 fold change vs. control,4 h after LPA treatment,+1.67 (6.37E−08) fold
same,DSEL fold change vs. control,4 h after LPA treatment,+2.33 (1.17E−06) fold
same,ESRRG fold change vs. control,4 h after LPA treatment,+1.93 (4.52E−08) fold
same,MKL1 (total) fold change vs. control,4 h after LPA treatment,+2.41 (3.56E−07) fold
same,MMP16 fold change vs. control,4 h after LPA treatment,+5.86 (1.39E−07) fold
same,NAP1L3 fold change vs. control,4 h after LPA treatment,+2.78 (2.44E−06) fold
same,OSTN fold change vs. control,4 h after LPA treatment,+2.23 (3.48E−05) fold
same,PDGFD fold change vs. control,4 h after LPA treatment,+1.61 (8.28E−06) fold
same,ROCK1P1 fold change vs. control,4 h after LPA treatment,+1.53 (3.63E−03) fold
same,RORB fold change vs. control,4 h after LPA treatment,+1.46 (1.34E−04) fold
same,SLC8A1 fold change vs. control,4 h after LPA treatment,+1.67 (1.71E−05) fold
same,SPOCK3 fold change vs. control,4 h after LPA treatment,+5.04 (8.54E−09) fold
same,ACTA2 fold change vs. control,untreated cells,+2.30 (1.88E−07) fold
same,ADAM21 fold change vs. control,untreated cells,−1.21 (1.63E−02) fold
same,AMBN fold change vs. control,untreated cells,<1.20 fold
same,CNN2 fold change vs. control,untreated cells,+2.53 (1.91E−08) fold
same,DSEL fold change vs. control,untreated cells,+2.43 (5.20E−06) fold
same,ESRRG fold change vs. control,untreated cells,+2.37 (2.34E−08) fold
same,MKL1 (total) fold change vs. control,untreated cells,+3.70 (1.19E−11) fold
same,MMP16 fold change vs. control,untreated cells,+2.98 (3.46E−07) fold
same,NAP1L3 fold change vs. control,untreated cells,+2.68 (1.98E−06) fold
same,OSTN fold change vs. control,untreated cells,<1.20 fold
same,PDGFD fold change vs. control,untreated cells,+2.01 (4.75E−05) fold
same,ROCK1P1 fold change vs. control,untreated cells,<1.20 fold
same,RORB fold change vs. control,untreated cells,+1.96 (2.76E−07) fold
same,SLC8A1 fold change vs. control,untreated cells,+1.70 (5.75E−07) fold
same,SPOCK3 fold change vs. control,untreated cells,+3.21 (1.08E−07) fold
